Here are results for 38 sequences from the supplement of paper PMC7877785.

± gives the uncertainty stated by the source.

This data set in a line: self-splicing fitness, log relative to wild type (ln ratio); higher = more splicing; Tetrahymena group I intron in knt gene, E. coli kanamycin selection, DiMSum; sequences stand for … in CUCUCU…GGAGGGAAAAGUUAUCAGGCAUGCACCUGGUAGCUAGUCUUUAAACCAAUAGAUUGCAUCGGUUUAAAAGGCAAGACCGUCAAAUUGCGGGAAAGGGGUCAACAGCCGUUCAGUACCAAGUCUCAGGGGAAACUUUGAGAUGGCCUUGCAAAGGGUAUGGUAAUAAGCUGACGGACAUGGUCCUAACCACGCAGCCAAGUCCUAAGUCAACAGAUCUUCUGUUGAUAUGGAUGCAGUUCACAGACUAAAUGUCGGUCGGGGAAGAUGUAUUCUUCUCAUAAGAUAUAGUCGGACCUCUCCUUAAUGGGAGCUAGCGGAUGAAGUGAUGCAACACUGGAGCCGCUGGGAACUAAUUUGUAUGCGAAAGUAUAUUGAUUAGUUUUGGAGUACUCGUGGUCG
The method, boiled down: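 DiMSum derived fitness as the error-weighted combination of fold changes across replicates, kanamycin versus no kanamycin, normalised to wild type. E. coli BL21(DE3) held the library, which randomised all eight P1ex-region intron nucleotides within the knt kanamycin-resistance gene on pET-22b(+). Six replicate transformations grew overnight at 37°C or 30°C on LB agar with or without 25 μg/mL kanamycin, also containing 100 μg/mL carbenicillin, 50 μM IPTG and 0.2% rhamnose, and pooled colonies were amplicon-sequenced on an Illumina HiSeq 2500.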

As for GAUUAGCAAUAUUACGCAAA, the “self-splicing fitness (ln)” value (30 °C) is -2.19 ± 0.18 and the “self-splicing fitness (ln)” value (37 °C) was -2.24 ± 0.19.

Consider CGCAAGCAAUAUUACGGAUA, for which the “self-splicing fitness (ln)” value (30 °C) is -3.52 ± 0.22 and the “self-splicing fitness (ln)” value (37 °C) was -2.23 ± 0.16. The corresponding values for ACGAAGCAAUAUUACGGGGC are -3.36 ± 0.14 and -2.76 ± 0.16. The corresponding values for GACGAGCAAUAUUACGUCAU are -2.2 ± 0.2 and -3.16 ± 0.43. The corresponding values for ACAUAGCAAUAUUACGACAU are -0.718 ± 0.011 and -0.22 ± 0.032. For the sequence ACGCAGCAAUAUUACGUGCU, the “self-splicing fitness (ln)” value was -3.65 ± 0.18 (30 °C) and -2.9 ± 0.19 (37 °C). The corresponding values for CUUCAGCAAUAUUACGGUCU are -2.93 ± 0.15 and -2.21 ± 0.2.

Regarding ACUAAGCAAUAUUACGAUAU, the “self-splicing fitness (ln)” value is -1.39 ± 0.12 (30 °C) and -2.28 ± 0.16 (37 °C).

Consider CAGGAGCAAUAUUACGAGUA, for which the “self-splicing fitness (ln)” value (37 °C) is -2.34 ± 0.42. Regarding ACGCAGCAAUAUUACGCGUG, the “self-splicing fitness (ln)” value reads like this: (30 °C) -3.43 ± 0.18; (37 °C) -2.07 ± 0.17. Consider UCGAAGCAAUAUUACGUACA, for which the “self-splicing fitness (ln)” value (30 °C) was -0.691 ± 0.13 and the “self-splicing fitness (ln)” value (37 °C) is 0.0696 ± 0.11.

Consider GUCCAGCAAUAUUACGUCUC, for which the “self-splicing fitness (ln)” value is 0.725 ± 0.087 (30 °C) and -0.134 ± 0.087 (37 °C). The corresponding values for GCAUAGCAAUAUUACGGUCU are -1.57 ± 0.098 and -0.521 ± 0.092.

With AACUAGCAAUAUUACGAUUU, the “self-splicing fitness (ln)” value is -0.0161 ± 0.059 (30 °C) and -0.157 ± 0.075 (37 °C). On the same counts, the results for UUAAAGCAAUAUUACGUAGC are -4.43 ± 0.3 and -2.96 ± 0.48. UAUGAGCAAUAUUACGCGGA: the “self-splicing fitness (ln)” value reads like this: (30 °C) -2.39 ± 0.25; (37 °C) -1.69 ± 0.24. The corresponding values for AUCAAGCAAUAUUACGCGGG are -2.86 ± 0.14 and -1.04 ± 0.12. In the case of AAAGAGCAAUAUUACGAAUC, the “self-splicing fitness (ln)” value reads like this: (30 °C) -3.27 ± 0.24; (37 °C) -2.7 ± 0.26. On the same counts, the results for AGUAAGCAAUAUUACGAUGG are -3.99 ± 0.23 and -1.56 ± 0.26. The corresponding values for GGAGAGCAAUAUUACGGGAC are -2.46 ± 0.23 and -0.231 ± 0.32.

In the case of UUCUAGCAAUAUUACGUACU, the “self-splicing fitness (ln)” value runs as follows: (30 °C) -3.29 ± 0.36; (37 °C) -2.97 ± 0.47.

Regarding GGGGAGCAAUAUUACGCAUU, the “self-splicing fitness (ln)” value (30 °C) is -3.09 ± 0.27 and the “self-splicing fitness (ln)” value (37 °C) is -1.93 ± 0.21.

For GUGCAGCAAUAUUACGCAGU, the “self-splicing fitness (ln)” value is -3.58 ± 0.27 (30 °C) and -2.4 ± 0.28 (37 °C). On to GACCAGCAAUAUUACGGCCG, for which the “self-splicing fitness (ln)” value (30 °C) is -0.246 ± 0.063 and the “self-splicing fitness (ln)” value (37 °C) amounted to 0.158 ± 0.093. The corresponding values for GAAUAGCAAUAUUACGUUCA are -1.04 ± 0.38 and -0.336 ± 0.3.

AAAGAGCAAUAUUACGGCCU: the “self-splicing fitness (ln)” value reads like this: (30 °C) -2.16 ± 0.13; (37 °C) -0.199 ± 0.13.

As to UACUAGCAAUAUUACGCGGC, the “self-splicing fitness (ln)” value by setting is: (30 °C) -4.73 ± 0.46; (37 °C) -2.95 ± 0.4. With CUAAAGCAAUAUUACGACGU, the “self-splicing fitness (ln)” value (30 °C) is -3.33 ± 0.28 and the “self-splicing fitness (ln)” value (37 °C) was -0.435 ± 0.19. As to GAAAAGCAAUAUUACGCCGC, the “self-splicing fitness (ln)” value (30 °C) is -2.23 ± 0.25. As for CCCCAGCAAUAUUACGGUAA, the “self-splicing fitness (ln)” value is, setting by setting: (30 °C) -3.78 ± 0.15; (37 °C) -2.78 ± 0.16. For the sequence CCUCAGCAAUAUUACGCUGG, the “self-splicing fitness (ln)” value (30 °C) was -2.55 ± 0.12 and the “self-splicing fitness (ln)” value (37 °C) was -2.41 ± 0.17. On the same counts, the results for CGUGAGCAAUAUUACGCAUG are -0.06 ± 0.18 and -1.13 ± 0.27. On the same counts, the results for CGAUAGCAAUAUUACGAGUU are -3.61 ± 0.24 and -2.28 ± 0.23.

As to CUUUAGCAAUAUUACGCACC, the “self-splicing fitness (ln)” value (30 °C) is -2.92 ± 0.43. As to CGGGAGCAAUAUUACGGGUG, the “self-splicing fitness (ln)” value is -3.26 ± 0.28 (30 °C) and -2.07 ± 0.28 (37 °C). The corresponding values for CUAUAGCAAUAUUACGGUAU are -4.43 ± 0.36 and -3.22 ± 0.27. As to GCUCAGCAAUAUUACGUGUC, the “self-splicing fitness (ln)” value was -1.55 ± 0.078 (30 °C) and -0.662 ± 0.081 (37 °C). As to GGUCAGCAAUAUUACGUCAU, the “self-splicing fitness (ln)” value is, setting by setting: (30 °C) -0.37 ± 0.088; (37 °C) 0.00388 ± 0.12.
